From US20040180443, “Methods for transfer of DNA segments” (Stratagene, published 2004) come the findings set out here.

This data set deals with Cre recombinase (Bacteriophage P1?, UniProt P06956 P06956:1-343). Nature of the data set: in vitro loxP x loxP plasmid co-integration, 50 mM Tris pH 7.5, 10 mM MgCl2, 30 mM NaCl, 37 C 45 min; read out by product vector rescue in E. coli (1.2x10^4 and 8.2x10^5 colonies per ug second vector). Conditions: tags: Stratagene; chain copies: 4. The protocol: To rescue the product vector from the co-integrate vector, chemically competent XL1-blue or XL10 gold (kanR) (both strains from Stratagene, LaJolla, Calif.) were transformed with the above recombination reaction. Either strain has high transformation efficiencies and carries the F′ plasmid required to render the host infectable by filamentous phages such as f1. Transformation was performed by mixing 2.5 μl of the recombination reaction with 100 μl of competent cells, incubation on ice for 20 minutes and subsequent hear shock at 42° C. for 45 seconds. After the heat shock, 1 ml of 1×NZY, 10 μl of Exassist helper phage (10⁸ pfu; Stratagene, LaJolla, Calif.) and 100 μl of a fresh stationary culture of XLOLR-S^R were added and incubated for 2 hours at 37° C. while shaking. The XLOLR-S^R strain serves as the secondary host. The secondary host can be selected for with Streptomycin. Exassist is used as a helper phage allowing packaging of the rescued single-stranded product vector. […]
Plasmid DNA of 18 blue colonies were analyzed by restriction digestion. […] All white colonies analyzed by restriction digestion were indistinguishable from the second vector and presumably resulted form mutations in the rpsL insert serving as the negative selectable marker. […]

Cre recombinase, sequence (P06956 whole entry, one chain of several): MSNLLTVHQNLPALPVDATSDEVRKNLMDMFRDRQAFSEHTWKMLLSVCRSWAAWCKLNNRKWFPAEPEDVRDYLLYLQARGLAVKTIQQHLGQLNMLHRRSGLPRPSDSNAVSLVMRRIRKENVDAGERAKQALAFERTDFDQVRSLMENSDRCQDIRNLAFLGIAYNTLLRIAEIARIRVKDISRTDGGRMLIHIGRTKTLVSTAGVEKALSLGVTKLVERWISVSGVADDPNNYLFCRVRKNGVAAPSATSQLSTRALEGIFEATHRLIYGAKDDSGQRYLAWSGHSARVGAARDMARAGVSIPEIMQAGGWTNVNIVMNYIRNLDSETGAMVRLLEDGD

B1: loxP site (wild type) in first and second vectors (dsDNA)
DNA 1: CGAATTGGAGCTATAACTTCGTATAATGTATGCTATACGAAGTTATCATATGGCGGTGGCGGCCGCTCTAGAAC
DNA 2: GTTCTAGAGCGGCCGCCACCGCCATATGATAACTTCGTATAGCATACATTATACGAAGTTATAGCTCCAATTCG
On to B1, for which the binding result is on record as “binds”.
